Measured values: publication PMC4510984 (Nature, 2015)
Like-named read-outs stand apart in the source and are kept apart here.

What was measured:
Test in all cases: transmission electron microscopy
[1] = biological target: the molecule itself
[2] = biological target: the molecule itself; remark: listed apart in the source
[3] = biological target: the molecule itself; remark: listed apart in the source

B1: human phosphofructokinase-1, platelet isoform (PFKP), recombinant wild type (enzyme, UniProt Q01813-1 1-784, looked up)
chain: MDADDSRAPKGSLRKFLEHLSGAGKAIGVLTSGGDAQGMNAAVRAVVRMGIYVGAKVYFIYEGYQGMVDGGSNIAEADWESVSSILQVGGTIIGSARCQAFRTREGRLKAACNLLQRGITNLCVIGGDGSLTGANLFRKEWSGLLEELARNGQIDKEAVQKYAYLNVVGMVGSIDNDFCGTDMTIGTDSALHRIIEVVDAIMTTAQSHQRTFVLEVMGRHCGYLALVSALACGADWVFLPESPPEEGWEEQMCVKLSENRARKKRLNIIIVAEGAIDTQNKPITSEKIKELVVTQLGYDTRVTILGHVQRGGTPSAFDRILASRMGVEAVIALLEATPDTPACVVSLNGNHAVRLPLMECVQMTQDVQKAMDERRFQDAVRLRGRSFAGNLNTYKRLAIKLPDDQIPKTNCNVAVINVGAPAAGMNAAVRSAVRVGIADGHRMLAIYDGFDGFAKGQIKEIGWTDVGGWTGQGGSILGTKRVLPGKYLEEIATQMRTHSINALLIIGGFEAYLGLLELSAAREKHEEFCVPMVMVPATVSNNVPGSDFSIGADTALNTITDTCDRIKQSASGTKRRVFIIETMGGYCGYLANMGGLAAGADAAYIFEEPFDIRDLQSNVEHLTEKMKTTIQRGLVLRNESCSENYTTDFIYQLYSEEGKGVFDCRKNVLGHMQQGGAPSPFDRNFGTKISARAMEWITAKLKEARGRGKKFTTDDSICVLGISKRNVIFQPVAELKKQTDFEHRIPKEQWWLKLRPLMKILAKYKASYDVSDSGQLEHVQPWSV
stoichiometry N [1]: 2 | stoichiometry N [2]: 4

B2: PFKP-F649L (enzyme, human, UniProt Q01813-1 1-784, looked up)
chain: MDADDSRAPKGSLRKFLEHLSGAGKAIGVLTSGGDAQGMNAAVRAVVRMGIYVGAKVYFIYEGYQGMVDGGSNIAEADWESVSSILQVGGTIIGSARCQAFRTREGRLKAACNLLQRGITNLCVIGGDGSLTGANLFRKEWSGLLEELARNGQIDKEAVQKYAYLNVVGMVGSIDNDFCGTDMTIGTDSALHRIIEVVDAIMTTAQSHQRTFVLEVMGRHCGYLALVSALACGADWVFLPESPPEEGWEEQMCVKLSENRARKKRLNIIIVAEGAIDTQNKPITSEKIKELVVTQLGYDTRVTILGHVQRGGTPSAFDRILASRMGVEAVIALLEATPDTPACVVSLNGNHAVRLPLMECVQMTQDVQKAMDERRFQDAVRLRGRSFAGNLNTYKRLAIKLPDDQIPKTNCNVAVINVGAPAAGMNAAVRSAVRVGIADGHRMLAIYDGFDGFAKGQIKEIGWTDVGGWTGQGGSILGTKRVLPGKYLEEIATQMRTHSINALLIIGGFEAYLGLLELSAAREKHEEFCVPMVMVPATVSNNVPGSDFSIGADTALNTITDTCDRIKQSASGTKRRVFIIETMGGYCGYLANMGGLAAGADAAYIFEEPFDIRDLQSNVEHLTEKMKTTIQRGLVLRNESCSENYTTDLIYQLYSEEGKGVFDCRKNVLGHMQQGGAPSPFDRNFGTKISARAMEWITAKLKEARGRGKKFTTDDSICVLGISKRNVIFQPVAELKKQTDFEHRIPKEQWWLKLRPLMKILAKYKASYDVSDSGQLEHVQPWSV
stoichiometry N [3]: 2
